Experimental data reported in US20170051042A1.

Columns and labels:
[1] = biological target: GPIIb/IIIa on human platelets (human) (UniProt P08514); test: platelet depletion assay, 2.5 nM, plasma lacking FVIII and vWF (condition C); the filing calls this non-specific binding to platelets, not through GPIIb/IIIa
[2] = biological target: GPIIb/IIIa on mouse platelets (mouse) (UniProt Q9QUM0); test: mouse platelet depletion assay, unbound FVIII activity in supernatant; the filing calls this non-specific binding, not occurring through the peptide
[3] = biological target: purified GPIIb-IIIa (Innovative Research), immobilized (UniProt P08514); test: solid phase competition of 3.5 nM biotinylated fibrinogen on coated GPIIb-IIIa, N=4

Chain of GPIIb/IIIa on mouse platelets (mouse) (Q9QUM0 32-1033, chain 1 of 2): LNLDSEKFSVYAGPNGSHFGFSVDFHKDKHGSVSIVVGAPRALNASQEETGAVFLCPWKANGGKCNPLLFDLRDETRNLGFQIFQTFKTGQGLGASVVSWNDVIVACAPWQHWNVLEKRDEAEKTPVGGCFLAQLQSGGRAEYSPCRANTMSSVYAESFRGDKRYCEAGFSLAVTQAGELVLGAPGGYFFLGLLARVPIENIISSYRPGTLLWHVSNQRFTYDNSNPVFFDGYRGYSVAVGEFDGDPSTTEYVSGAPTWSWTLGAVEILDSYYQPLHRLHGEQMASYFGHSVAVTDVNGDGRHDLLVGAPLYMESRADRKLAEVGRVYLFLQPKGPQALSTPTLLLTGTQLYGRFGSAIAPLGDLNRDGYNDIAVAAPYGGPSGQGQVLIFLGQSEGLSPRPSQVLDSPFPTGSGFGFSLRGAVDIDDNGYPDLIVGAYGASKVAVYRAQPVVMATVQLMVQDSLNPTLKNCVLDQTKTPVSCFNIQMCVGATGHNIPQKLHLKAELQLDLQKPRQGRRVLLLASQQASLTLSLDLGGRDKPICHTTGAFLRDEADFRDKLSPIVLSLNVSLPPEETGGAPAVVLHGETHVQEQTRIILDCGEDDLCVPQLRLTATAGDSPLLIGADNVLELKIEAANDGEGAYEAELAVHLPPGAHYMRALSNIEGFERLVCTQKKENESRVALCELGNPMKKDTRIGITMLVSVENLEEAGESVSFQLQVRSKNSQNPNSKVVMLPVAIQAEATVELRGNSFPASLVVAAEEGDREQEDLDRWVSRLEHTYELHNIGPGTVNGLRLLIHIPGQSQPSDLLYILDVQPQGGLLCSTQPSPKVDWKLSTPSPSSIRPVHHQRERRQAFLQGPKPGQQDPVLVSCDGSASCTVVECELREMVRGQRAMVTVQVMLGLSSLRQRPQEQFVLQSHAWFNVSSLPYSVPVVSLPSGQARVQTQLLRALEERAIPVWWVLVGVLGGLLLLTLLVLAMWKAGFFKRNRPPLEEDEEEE
Chain of GPIIb/IIIa on mouse platelets (mouse) (O54890 26-787, chain 2 of 2, further chain): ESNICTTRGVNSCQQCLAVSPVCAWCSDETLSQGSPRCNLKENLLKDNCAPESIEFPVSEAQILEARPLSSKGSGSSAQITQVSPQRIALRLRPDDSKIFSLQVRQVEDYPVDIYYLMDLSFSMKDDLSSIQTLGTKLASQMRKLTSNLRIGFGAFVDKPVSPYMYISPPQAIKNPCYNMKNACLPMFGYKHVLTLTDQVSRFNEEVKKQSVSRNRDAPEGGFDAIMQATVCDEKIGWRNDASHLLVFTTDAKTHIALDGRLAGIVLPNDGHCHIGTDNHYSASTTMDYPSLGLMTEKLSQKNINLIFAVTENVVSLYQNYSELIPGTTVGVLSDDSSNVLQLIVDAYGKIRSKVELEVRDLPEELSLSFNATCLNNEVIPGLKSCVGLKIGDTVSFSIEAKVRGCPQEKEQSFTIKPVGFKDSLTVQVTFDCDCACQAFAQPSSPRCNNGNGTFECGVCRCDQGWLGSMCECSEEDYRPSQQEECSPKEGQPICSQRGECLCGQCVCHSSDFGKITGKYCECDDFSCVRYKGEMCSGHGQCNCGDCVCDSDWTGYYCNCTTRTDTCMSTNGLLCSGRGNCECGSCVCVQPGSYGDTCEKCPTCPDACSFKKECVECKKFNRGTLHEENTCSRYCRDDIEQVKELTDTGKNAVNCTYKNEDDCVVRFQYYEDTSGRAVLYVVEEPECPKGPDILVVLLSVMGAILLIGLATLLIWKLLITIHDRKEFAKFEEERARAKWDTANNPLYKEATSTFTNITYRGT

Row | percent of FVIII activity bound [1] | percent of activity bound [2] | Substance | IC50 [3]
1 | 35% | 59% | unmodified recombinant FVIII (from UniProt P00451 20-2351) | –
2 | – | – | integrilin (peptide) | 1.3 nM
